# Assay results taken from patent publication US20140194361A1 (published 2014).
# No end group written: not given here.
# Molecular target: α5β1 integrin receptor on primary mesangial cells
# Test: cell-based or functional assay
binder,measurement,value
"CGRGDSP (also: cyclic GRGDSP part, ring closure not given here) [modified CGRGDSP peptide (D-peptide)]","inhibition of MC adhesion to fibronectin-coated plates, enhanced potency of D- vs. E-control peptide compared to GRGDSP, at 200 µg/ml",2.4 fold
same,"inhibition of MC adhesion to fibronectin-coated plates, enhanced potency of D- vs. E-control peptide compared to GRGDSP, at 400 µg/ml",2.8 fold
same,"inhibition of mesangial cell binding to FN-coated plates, potency against GRGDSP",~3 fold more potent than GRGDSP
